# B1: pBC0114: base construct expressing BDD FVIII, pcDNA4-FVIII_4-…-Myc-SPATG-His, lacking XTEN insertions (protein)
# chain: MQIELSTCFFLCLLRFCFSATRRYYLGAVELSWDYMQSDLGELPVDARFPPRVPKSFPFNTSVVYKKTLFVEFTDHLFNIAKPRPPWMGLLGPTIQAEVYDTVVITLKNMASHPVSLHAVGVSYWKASEGAEYDDQTSQREKEDDKVFPGGSHTYVWQVLKENGPMASDPLCLTYSYLSHVDLVKDLNSGLIGALLVCREGSLAKEKTQTLHKFILLFAVFDEGKSWHSETKNSLMQDRDAASARAWPKMHTVNGYVNRSLPGLIGCHRKSVYWHVIGMGTTPEVHSIFLEGHTFLVRNHRQASLEISPITFLTAQTLLMDLGQFLLFCHISSHQHDGMEAYVKVDSCPEEPQLRMKNNEEAEDYDDDLTDSEMDVVRFDDDNSPSFIQI
# modifications: Myc and His tags
# B2: AC398 (protein)
# chain: AVFVTQEEAHGVLHRRRRANAFLEELRPGSLERECKEEQCSFEEAREIFKDAERTKLFWISYSDGDQCASSPCQNGGSCKDQLQSYICFCLPAFEGRNCETHKDDQLICVNENGGCEQYCSDHTGTKRSCRCHEGYSLLADGVSCTPTVEYPCGKIPILEKRNASKPQGRIVGGKVCPKGECPWQVLLLVNGAQLCGGTLINTIWVVSAAHCFDKIKNWRNLIAVLGEHDLSEHDGDEQSRRVAQVIIPSTYVPGTTNHDIALLRLHQPVVLTDHVVPLCLPERTFSERTLAFVRFSLVSGWGQLLDRGATALELMVLNVPRLMTQDCLQQSRKVGDSPNITEYMFCAGYSDGSKDSCKGDSGGPHATHYRGTWYLTGIVSWGQGCATVGHFGVYTRVSQYIEWLQKLMRSEPRPGVLLRAPFPGSPGTSESATPESGPGSEPATSGSETPGTSESATPESGPGSEPATSGSETPGTSESATPESGPGTSTEPSEGSAPGSPAGSPTSTEEGTSESATPESGPGSEPATSGSETPGTSESATPESGPGSPAGSPTSTEEGSPAGSPTSTEEGTSTEPSEGSAPGTSESATPESGPGTSESATPESGPGTSESATPESGPGSEPATSGSETPGSEPATSGSETPGSPAGSPTSTEEGTSTEPSEGSAPGTSTEPSEGSAPGSEPATSGSETPGTSESATPESGPGTSTEPSEGSAPGSSS
# B3: AC404 (protein)
# chain: AVFVTQEEAHGVLHRRRRANAFLEELRPGSLERECKEEQCSFEEAREIFKDAERTKLFWISYSDGDQCASSPCQNGGSCKDQLQSYICFCLPAFEGRNCETHKDDQLICVNENGGCEQYCSDHTGTKRSCRCHEGYSLLADGVSCTPTVEYPCGKIPILEKRNASKPQGRIVGGKVCPKGECPWQVLLLVNGAQLCGGTLINTIWVVSAAHCFDKIKNWRNLIAVLGEHDLSEHDGDEQSRRVAQVIIPSTYVPGTTNHDIALLRLHQPVVLTDHVVPLCLPERTFSERTLAFVRFSLVSGWGQLLDRGATALELMVLNVPRLMTQDCLQQSRKVGDSPNITEYMFCAGYSDGSKDSCKGDSGGPHATHYRGTWYLTGIVSWGQGCATVGHFGVYTRVSQYIEWLQKLMRSEPRPGVLLRAPFPGSPGSPAGSPTSTEEGTSESATPESGPGTSTEPSEGSAPGSPAGSPTSTEEGTSTEPSEGSAPGTSTEPSEGSAPGTSESATPESGPGSEPATSGSETPGSEPATSGSETPGSPAGSPTSTEEGTSESATPESGPGTSTEPSEGSAPGTSTEPSEGSAPGSPAGSPTSTEEGTSTEPSEGSAPGTSTEPSEGSAPGTSESATPESGPGTSTEPSEGSAPGTSESATPESGPGSEPATSGSETPGTSTEPSEGSAPGTSTEPSEGSAPGTSESATPESGPGTSESATPESGPGSPAGSPTSTEEGTSESATPESGPGSEPATSGSETPGTSESATPESGPGTSTEPSEGSAPGTSTEPSEGSAPGTSTEPSEGSAPGTSTEPSEGSAPGTSTEPSEGSAPGTSTEPSEGSAPGSPAGSPTSTEEGTSTEPSEGSAPGTSESATPESGPGSEPATSGSETPGTSESATPESGPGSEPATSGSETPGTSESATPESGPGTSTEPSEGSAPGTSESATPESGPGSPAGSPTSTEEGSPAGSPTSTEEGSPAGSPTSTEEGTSESATPESGPGTSTEPSEGSAPGTSESATPESGPGSEPATSGSETPGTSESATPESGPGSEPATSGSETPGTSESATPESGPGTSTEPSEGSAPGSPAGSPTSTEEGTSESATPESGPGSEPATSGSETPGTSESATPESGPGSPAGSPTSTEEGSPAGSPTSTEEGTSTEPSEGSAPGTSESATPESGPGTSESATPESGPGTSESATPESGPGSEPATSGSETPGSEPATSGSETPGSPAGSPTSTEEGTSTEPSEGSAPGTSTEPSEGSAPGSEPATSGSETPGTSESATPESGPGTSTEPSEGSAPGSSS
# B4: pBC 0114 (protein)
# chain: B1 chain
# Experiments:
# activation of factor X = test: Chromogenix Coamatic Factor VIII activity assay; assay type: biochemical
# From the text: BDD FVIII and FVIII-XTEN fusion protein constructs pBC0114, pBC0135, pBC0136, pBC0137, pBC0145, pBC0146, and pBC0149, in various configurations, including XTEN_AE288 and AG288 inserted at the C-terminus of the FVIII BDD sequence and FVIII-XTEN fusion proteins with AE42 and AE288 inserted after residue 745 (or residue 743) and before residue 1640 (or residue 1638) of the B-domain […], were expressed in transiently transfected Freestyle 293 cells, as described above, and tested for procoagulant activity. […] The assay was performed according to manufacturer's instructions using the end-point method, which was measured spectrophotometrically at OD405 nm A standard curve was created using purified FVIII protein at concentrations of 250, 200, 150, 100, 75, 50, 37.5, 25, 12.5, 6.25, 3.125 and 1.56 mU/ml. […] The cell culture media of the FVIII-XTEN constructs were obtained as described, above, and were tested in replicates at 1:50, 1:150, and 1:450 dilutions and the activity of each was calculated in U/ml.
# Using the Chromogenix Coamatic Factor VIII (Chromogenix, cat#82258563) the activity of FVIII is assessed as follows. […] The color is then read spectrophotometrically at 405 nm The generated factor Xa and thus the intensity of color is proportional to the factor VIII activity in the sample. […]
# [1] = Analytical size exclusion chromatography of XTEN fusion proteins; assay type: physicochemical; conditions: for Apparent MW: SEC, calibrated with globular protein standards; for Apparent Molecular Weight Factor: apparent MW relative to actual MW; for RH: hydrodynamic radius from SEC
# Description: Size exclusion chromatography analyses were performed on fusion proteins containing various therapeutic proteins and unstructured recombinant proteins of increasing length. […] Chromatogram profiles were monitored using OD214 nm and OD280 nm Column calibration for all assays were performed using a size exclusion calibration standard from BioRad; the markers include thyroglobulin (670 kDa), bovine gamma-globulin (158 kDa), chicken ovalbumin (44 kDa), equine myoglobuin (17 kDa) and vitamin B12 (1.35 kDa). […] Based on the SEC analyses for all constructs evaluated, including a […] composition, the apparent molecular weights, the apparent molecular weight factor (expressed as the ratio of apparent molecular weight to the calculated molecular weight) and the hydrodynamic radius (RH in nm) are shown in Table 16.
# FVIII activity = test: Two-stage chromogenic FVIII activity assay of transient transfection cell culture supernatant; assay type: biochemical; conditions: HEK293 cell culture supernatant, 5-day transient transfection
# Description: Two FVIII-XTEN fusion proteins, FVIII-AE288 (F8X-40) and FVIII-AG288 (F8X-41), contain an AE288 XTEN or an […] XTEN, respectively, fused at the C-terminus of FVIII C2 domain. To determine if FVIII activity was retained after XTEN fusion, HEK293 cells were transfected separately with these two FVIII-XTEN fusion constructs by using polyethylenimine (PEI) in serum-free medium. At 3 or 5 days post-transfection, the cell culture supernatant was tested for FVIII activity by a two-stage chromogenic assay. Purified recombinant FVIII, calibrated against WHO international standard, was used to establish the standard curve in the chromogeinic assay. […] (Table 26).
Molecule,Specific Activity (activation of factor X; activity (Chromogenix) per concentration (ELISA)) [IU/mg],"Activity (activation of factor X; cell culture medium of transiently transfected Freestyle 293 cells, Chromogenix Coamatic Factor VIII assay) [IU/ml]",Apparent MW [1] [kDa],Apparent Molecular Weight Factor [1],RH [1] [nm],FVIII activity (FVIII activity; Sample A) [IU/ml],FVIII activity (FVIII activity; Sample B) [IU/ml]
B1,5000,3.0,,,,,
B2,,,650,8.5,8.2,,
B3,,,1900,14.7,10.1,,
B4,,,,,,6.68,7.61

# Reference: patent US20120178691A1, “FACTOR VIII COMPOSITIONS AND METHODS OF MAKING AND USING SAME” (Amunix Operating Inc., priority 2010, published 2012)
